Paper PMC4714923

Target: T1, Hsp72 C-terminal tracer (Fam-…) (human)
T1 chain: GSGPTIEEVD
Assay: fluorescence polarisation
Details: remark: other sources report otherwise

- Kd: > 75 µM
B1: Human FKBP51 (51-kDa FK506-binding protein), Q13451 1-457 (natural protein)
chain: MTTDEGAKNNEESPTATVAEQGEDITSKKDRGVLKIVKRVGNGEETPMIGDKVYVHYKGKLSNGKKFDSSHDRNEPFVFSLGKGQVIKAWDIGVATMKKGEICHLLCKPEYAYGSAGSLPKIPSNATLFFEIELLDFKGEDLFEDGGIIRRTKRKGEGYSNPNEGATVEIHLEGRCGGRMFDCRDVAFTVGEGEDHDIPIGIDKALEKMQREEQCILYLGPRYGFGEAGKPKFGIEPNAELIYEVTLKSFEKAKESWEMDTKEKLEQAAIVKEKGTVYFKGGKYMQAVIQYGKIVSWLEMEYGLSEKESKASESFLLAAFLNLAMCYLKLREYTKAVECCDKALGLDSANEKGLYRRGEAQLLMNEFESAKGDFEKVLEVNPQNKAARLQISMCQKKAKEHNERDRRIYANMFKKFAEQDAKEEANKAMGKKTSEGVTNEKGTDSQAMEEEKPEGHV
modifications: here or on the partner: 5-carboxyfluorescein (5-Fam) on the N-terminus via a 6-carbon spacer (aminohexanoic acid)
